Where two headings read alike, the source gives them in different places.

Common to all, as to experiment: competition
One series has as its target E. coli CRP (Escherichia coli K12 MG1655, UniProt P0ACJ8 1-210).
Series [1] has as its target T1, TP0262 (TpCRP, CRP homolog) (Treponema pallidum subsp. pallidum, UniProt O83286 1-224).
T1 sequence: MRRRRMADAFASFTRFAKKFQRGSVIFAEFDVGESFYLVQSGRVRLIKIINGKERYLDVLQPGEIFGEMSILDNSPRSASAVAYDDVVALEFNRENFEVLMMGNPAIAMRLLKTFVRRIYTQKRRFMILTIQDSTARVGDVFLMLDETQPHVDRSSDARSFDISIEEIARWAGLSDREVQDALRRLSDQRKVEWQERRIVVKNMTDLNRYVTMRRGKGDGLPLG

The target in series [2] is T1, TP0262 (TpCRP, CRP homolog). The source holds these as a separate data set.
Series [3] has the same target. The source holds these as a separate data set.

Chain of E. coli CRP (P0ACJ8 whole entry): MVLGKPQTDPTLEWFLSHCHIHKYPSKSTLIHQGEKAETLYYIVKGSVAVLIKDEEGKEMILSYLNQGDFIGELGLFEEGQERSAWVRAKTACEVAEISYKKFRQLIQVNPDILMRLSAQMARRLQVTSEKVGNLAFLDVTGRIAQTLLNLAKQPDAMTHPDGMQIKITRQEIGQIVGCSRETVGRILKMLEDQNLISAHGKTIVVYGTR

B1: lac competitor oligo (E. coli CRP site) (dsDNA)
DNA 1: AAATGTGATCTAGATCACATTT
DNA 2: AAATGTGATCTAGATCACATTT
On to B1, for which the binding result in the series with E. coli CRP was “binds”.

B2: tprJ competitor oligo (dsDNA)
DNA 1: GTTGTCAGTGCACGAGGAGGAG
DNA 2: CTCCTCCTCGTGCACTGACAAC
In the case of B2, in series [1], the binding result is on record as “binds”.

B3: tprE competitor oligo (dsDNA)
DNA 1: TGCGTGTGTGTGTGGGCTCGTGCTG
DNA 2: CAGCACGAGCCCACACACACACGCA
On to B3, for which the binding result in series [2] is recorded as “binds”.

B4: tprG competitor oligo (dsDNA)
DNA 1: GTCAGTGCTAGCAGTCACATAC
DNA 2: GTATGTGACTGCTAGCACTGAC
In the case of B4, in series [3], the binding result is listed as “binds”.

Values taken from article PMC2698047.
